Experimental data reported in US20210214418A1.

Target: chemokine receptor CXCR5 (overexpressed on CXCR5-CAR T cells) (UniProt P32302)
Test: cell-based or functional assay

Chain of UniProt P32302 (P32302 whole entry): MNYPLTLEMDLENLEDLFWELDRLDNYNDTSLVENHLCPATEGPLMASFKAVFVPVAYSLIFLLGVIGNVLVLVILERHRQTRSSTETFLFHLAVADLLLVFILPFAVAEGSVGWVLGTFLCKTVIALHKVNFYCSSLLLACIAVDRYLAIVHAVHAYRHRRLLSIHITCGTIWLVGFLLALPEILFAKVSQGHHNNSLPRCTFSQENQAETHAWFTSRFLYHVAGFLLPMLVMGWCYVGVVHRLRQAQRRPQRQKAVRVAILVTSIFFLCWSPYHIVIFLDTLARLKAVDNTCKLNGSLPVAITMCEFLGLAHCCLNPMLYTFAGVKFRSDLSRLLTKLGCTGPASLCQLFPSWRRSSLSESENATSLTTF

radio-isotope signal at the CXCL13 positive tumor site, EGFR-CXCR5-CAR compared with EGFR-CAR, 72 h: 3 fold
radio-isotope signal at the CXCL13 positive tumor site, EGFR-CXCR5-CAR compared with EGFR-CAR, 168 h: 7 fold
Substance: CXCL13 stably transfected in A549 cells (A549-CXCL13) (from UniProt O43927 23-109) (ligand)
